The values below come from article PMC8873925.

Common to all, as to test: ITC
Data set [1] concerns the target T1, CSTF2 RRM D90I (Homo sapiens, UniProt P33240 1-107, D90I).
T1 sequence: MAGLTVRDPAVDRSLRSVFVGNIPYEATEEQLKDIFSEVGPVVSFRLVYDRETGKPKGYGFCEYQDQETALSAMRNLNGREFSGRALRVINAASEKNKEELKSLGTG

Data set [2] concerns the target T2, CSTF2 (CstF-64) RRM wild-type (Homo sapiens, UniProt P33240 1-107).
T2 sequence: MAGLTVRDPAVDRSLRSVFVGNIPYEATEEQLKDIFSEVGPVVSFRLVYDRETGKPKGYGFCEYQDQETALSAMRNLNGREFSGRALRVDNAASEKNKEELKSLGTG

Data set [3] addresses T3, CSTF2 RRM D50A (Homo sapiens, UniProt P33240 1-107, D50A).
T3 sequence: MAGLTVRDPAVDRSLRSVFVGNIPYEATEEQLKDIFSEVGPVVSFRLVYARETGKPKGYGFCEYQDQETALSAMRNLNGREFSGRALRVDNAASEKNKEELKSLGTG

The target of data set [4] is T4, CSTF2 RRM F45A (Homo sapiens, UniProt P33240 1-107, F45A).
T4 sequence: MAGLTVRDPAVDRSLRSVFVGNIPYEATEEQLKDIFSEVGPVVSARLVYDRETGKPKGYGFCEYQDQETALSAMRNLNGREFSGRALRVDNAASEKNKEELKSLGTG

Data set [5] deals with T5, CSTF2 RRM E26A (Homo sapiens, UniProt P33240 1-107, E26A).
T5 sequence: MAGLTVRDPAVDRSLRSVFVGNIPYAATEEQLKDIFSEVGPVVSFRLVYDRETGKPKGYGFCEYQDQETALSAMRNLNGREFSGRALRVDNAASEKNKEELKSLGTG

Data set [6] concerns the target T6, CSTF2 RRM A93E (Homo sapiens, UniProt P33240 1-107, A93E).
T6 sequence: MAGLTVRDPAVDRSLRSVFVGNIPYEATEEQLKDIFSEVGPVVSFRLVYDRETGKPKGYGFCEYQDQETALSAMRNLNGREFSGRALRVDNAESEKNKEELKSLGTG

In data set [7] the target is T7, CSTF2 RRM D90K (Homo sapiens, UniProt P33240 1-107, D90K).
T7 sequence: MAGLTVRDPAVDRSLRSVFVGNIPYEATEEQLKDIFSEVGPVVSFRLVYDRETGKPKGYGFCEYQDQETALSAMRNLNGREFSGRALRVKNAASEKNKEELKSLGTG

Data set [8] concerns the target T8, CSTF2 RRM K98E (Homo sapiens, UniProt P33240 1-107, K98E).
T8 sequence: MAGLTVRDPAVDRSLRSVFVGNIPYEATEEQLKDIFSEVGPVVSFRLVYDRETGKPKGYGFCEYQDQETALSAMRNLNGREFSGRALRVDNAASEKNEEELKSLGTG

The target in data set [9] is T9, CSTF2 RRM K96E (Homo sapiens, UniProt P33240 1-107, K96E).
T9 sequence: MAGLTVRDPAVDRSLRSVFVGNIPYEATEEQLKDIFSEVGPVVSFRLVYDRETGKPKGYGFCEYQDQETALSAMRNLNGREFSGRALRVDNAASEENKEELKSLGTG

B1: SVL RNA (ssRNA)
RNA: AUUUUAUGUUUCAGGU
As a reminder, the Kd is a measure of binding affinity in units of concentration. For the molecule B1, the Kd in data set [1] worked out at 1.26 ± 0.33 µM; in [2], 1.52 ± 0.17 µM; in [3] it was 0.698 ± 0.06 µM; in data set [4] it was 1.01 ± 0.05 µM; in data set [5], 0.52 ± 0.01 µM; in data set [6] it was 3.88 ± 0.77 µM. In addition, the Kd in data set [7] stood at 0.608 ± 0.01 µM; in data set [8], 8.7 ± 0.11 µM; in [9] it was 38.7 ± 4.2 µM.
